In patent publication US20090158455A1, “COMPOSITIONS AND METHODS FOR MODULATING LYSINE PRODUCTION” (priority 2005, published 2009) one finds Km data, which are given here for four proteins.

“And” between values parts separate entries of the source, which are not always exact repeats. Equal entries are not always repeated.

Substrate in series [1]: O=C(O)CCC(=O)C(=O)O
In words: purified protein, by the assay type. The settings on record: other: reverse assay.

Substrate in series [2]: O=C(O)C1=N[C@H](C(=O)O)CCC1
In words: purified protein, by the assay type. The following applies: other: forward assay.

Substrate in series [3]: N[C@@H](CCC(=O)O)C(=O)O
In words: purified protein, by the assay type. The settings on record: other: forward assay.

Substrate in series [4]: N[C@@H](CCC[C@H](N)C(=O)O)C(=O)O
The series is described as follows: purified protein, by the assay type. The settings on record: other: reverse assay.

Substrate in series [5]: O=C(O)C1=N[C@H](C(=O)O)CCC1
The series is described as follows: Quantitative forward and reverse assays of purified LL-DAP transaminases (Example III). The format is biochemical, Syntrophobacter fumaroxidans MPOB. The settings on record: other: forward assay.

Substrate in series [6]: N[C@@H](CCC(=O)O)C(=O)O
Described as above. Format: biochemical, Syntrophobacter fumaroxidans MPOB. The settings on record: other: forward assay.

Substrate in series [7]: O=C(O)C1=N[C@H](C(=O)O)CCC1
The series is described as above. The format is biochemical, Bacteroides fragilis NCTC9343. The following applies: other: forward assay. The source says:
(§1) All orfs were processed identically for expression in E. coli. The orfs were amplified by PCR using the indicated primers. The resulting DNA fragment was digested with BamHI and SalI and cloned into pET30b. The pET30b clone was sequenced. This plasmid was transformed into E. coli BL21-CodonPlus®-RIPL for expression and purification of the recombinant protein. For functional complementation experiments, the expression cassette was subcloned from pET30b into pBAD33 (Guzman et al., 1995) using XbaI and SalI. Using these enzymes the expression cassette included the entire orf, the His-Tag coding sequence and the ribosome binding site from pET30b. pBAD33 provided an arabinose-regulated promoter.
(§2) For protein expression the E. coli strains were grown on LB at 37° C. to an OD600 nm of 0.5 and protein expression was then induced with 1 mM IPTG for 4 hr at 25° C. Cells were lysed by sonication in a solution of 50 mM sodium phosphate and 300 mM NaCl (pH 8.0). Metabolites in the extract were removed by buffer exchange using an Amicon Ultra 30,000 MWCO ultrafilter and sodium phosphate/NaCl buffer, and the concentrated soluble protein sample was used for measurement of enzyme activity as an initial assessment of enzyme function. When the recombinant protein was to be purified a larger cell culture was grown and lysed as described above, but the buffer exchange step was not carried out. […] The pure protein was then concentrated in an Amicon Ultra 30,000 MWCO ultrafilter, replacing the elution buffer with 100 mM HepesKOH, pH 7.6.
(§3) Enzyme assays were performed as described above in Examples I and II.
(§4) The catalytic properties of sll0480, BF2643, Dhaf—3980, MTH52, and SfumDRAFT0821 were studied in greater detail using purified enzymes to determine their kinetic constants using quantitative forward and reverse assays.

Substrate in series [8]: N[C@@H](CCC(=O)O)C(=O)O
The series is described as above. Format: biochemical, Bacteroides fragilis NCTC9343. The settings on record: other: forward assay.
Text: as §1, §2, §3, §4

Substrate in series [9]: N[C@@H](CCC[C@H](N)C(=O)O)C(=O)O
The description is as above. The format is biochemical, Bacteroides fragilis NCTC9343. The following applies: other: reverse assay.
Text: as §1, §2, §3, §4

The mark [10] stands for this setting: Ddh-coupled, pH 7.5, 30° C., apparent Km, pH 7.5, 30.0 °C.
The mark [11] stands for this setting: coupled with 2-OG dehydrogenase, pH 7.5, apparent Km, pH 7.5, 30.0 °C.

B1: Arabidopsis thaliana LL-DAP-AT (At4g33680), wild type, recombinant (lacks first 39 amino acids, hexa-His and S-TAG), SEQ ID NO: 7 (Arabidopsis thaliana) (protein)
chain: VNTCKCVATPQEKIEYKTKVSRNSNMSKLQAGYLFPEIARRRSAHLLKYPDAQVISLGIGDTTEPIPEVITSAMAKKAHELSTIEGYSGYGAEQGAKPLRAAIAKTFYGGLGIGDDDVFVSDGAKCDISRLQVMFGSNVTIAVQDPSYPAYVDSSVIMGQTGQFNTDVQKYGNIEYMRCTPENGFFPDLSTVGRTDIIFFCSPNNPTGAAATREQLTQLVEFAKKNGSIIVYDSAYAMYMSDDNPRSIFEIPGAEEVAMETASFSKYAGFTGVRLGWTVIPKKLLYSDGFPVAKDFNRIICTCFNGASNISQAGALACLTPEGLEAMHKVIGFYKENTNIIIDTFTSLGYDVYGGKNAPYVWVHFPNQSSWDVFAEILEKTHVVTTPGSGFGPGGEGFVRVSAFGHRENILEACRRFKQLYK
Regarding B1, the Michaelis-Menten constant (Km) (commonly the concentration of substrate that gives half-maximal velocity) was 8300 µM and 8700 ± 300 µM in [1] (setting [10]); 38 ± 4 µM in series [2] (setting [11]); 2000 µM in series [3] (coupled with 2-OG dehydrogenase, pH 7.5, apparent Km, pH 7.5); 1900 ± 100 µM in [3] (setting [11]); 67 ± 2 µM in series [4] (setting [10]).

B2: Arabidopsis thaliana LL-DAP transaminase At4g33680, SEQ ID NO: 7 (Arabidopsis thaliana) (protein)
chain: VNTCKCVATPQEKIEYKTKVSRNSNMSKLQAGYLFPEIARRRSAHLLKYPDAQVISLGIGDTTEPIPEVITSAMAKKAHELSTIEGYSGYGAEQGAKPLRAAIAKTFYGGLGIGDDDVFVSDGAKCDISRLQVMFGSNVTIAVQDPSYPAYVDSSVIMGQTGQFNTDVQKYGNIEYMRCTPENGFFPDLSTVGRTDIIFFCSPNNPTGAAATREQLTQLVEFAKKNGSIIVYDSAYAMYMSDDNPRSIFEIPGAEEVAMETASFSKYAGFTGVRLGWTVIPKKLLYSDGFPVAKDFNRIICTCFNGASNISQAGALACLTPEGLEAMHKVIGFYKENTNIIIDTFTSLGYDVYGGKNAPYVWVHFPNQSSWDVFAEILEKTHVVTTPGSGFGPGGEGFVRVSAFGHRENILEACRRFKQLYK
Turning to B2, the Michaelis constant (Km) came to 1400 µM in [1], 25 µM in [2], 1400 µM in series [3] and 62 µM in series [4].

B3: Syntrophobacter fumaroxidans LL-DAP transaminase SfumDRAFT_0821 (Syntrophobacter fumaroxidans MPOB) (protein)
chain: MAFVKAERLKLLPPYLFQEIDRLKAELTAKGVDVINLGVGDPDLPTPDHIIARLKTAAEDPSTHQYPSYSGMNDFKVSVAGWYKRRFGVELDPLSEVLTLIGSKEGLAHFPLAVINPGDLALVPTPAYPVYHVATMFAGGESYFMPLVRENGFLPDLDSIPADVARRAKVMFINYPNNPTGATAERDFFEKVIAFAREYDVIVCHDAAYTEMAFGGYRPLSFLELPGAGEVGVEFHSLSKTYNMTGWRLGFAVGNADILAGLGQVKSNIDSGAFNAVQWAGITALEGDQGCVVEMQRIYKERLDILIEGLKRIGLHPEVPRATFYVWCPTPPGYSSKDFSSLLLREAGIVATPGSGFGAPGEGYIRMALTVDKERVREAVERMRKLSF
As for B3, the Km in series [5] turned out to be 12 µM; in series [6], 700 µM; in series [1], 700 µM; in series [4] it was 29 µM.

B4: Bacteroides fragilis LL-DAP transaminase Bf2643 (Bacteroides fragilis YCH46) (protein)
chain: MALVNEHFLKLPGSYLFSDIAKKVNTFKITHPKRDIIRLGIGDVTRPLPKACIEAMHKAVEEMTSAETFRGYGPEQGYDFLIEAIIKNDYAPRGIHLSPTEVFVNDGAKSDTGNIGDILRHDNSVGVTDPIYPVYIDSNVMCGRAGVLDTESGKWSNVTYMPCTAENHFIPAIPEKRIDIVYLCYPNNPTGTTLTKAELKKWVDYALANDTLILFDAAYEAYIREPDIPHSIYEIKGAKKCAIEFRSFSKTAGFTGVRCGYTVVPKELTAATLEGERIPLNRLWNRRQCTKFNGTSYITQRAAEAIYTPEGKEQIQETINYYMTNARIMKEGLESTGLKVYGGVNAPYLWVKTPNGTSSWRFFDQMLYEANVVGTPGVGFGPSGEGYIRLTAFGERDDCIEAMRRIKNRL
Turning to B4, the Michaelis-Menten constant (Km) in series [1] worked out at 1200 µM; in series [7], 96 µM; in series [8], 1300 µM; in series [9] it was 10 µM.
